Reference: the nanobody polyreactivity screen of Harvey et al. (2022)

Test: yeast display, Sf9 membrane polyspecificity reagent, FACS + sequencing; frameworks hold sequencing errors
Method in brief: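 After 36–48 hours of galactose induction, yeast (Saccharomyces cerevisiae BJ5465) displaying a synthetic nanobody library were stained at 4 °C for 1 hour with 10% biotinylated, detergent-solubilized Sf9 membrane reagent. Streptavidin microbeads enriched the stained cells before FACS sorting into low and high (top ~1%) gates on anti-HA and streptavidin fluorescence. Each clone's polyreactivity label reflects its gate of origin.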

Sequence | polyreactivity (PSR sort gate)
QVQLVESGRGLVPAGGSLRLSCAASGSTFFKNAMGWYRQAPGNERELVAAITWSGDRTYADSVKGRFTISRDNAKNTVYLQMNSLKPEDTAVYYCNVDITGYEDDEWGQGTQVTVSS | low polyreactivity
QVQLVESGRGLVQAGCSLRLSCAASGRIFPWNAMGWYRQAPGKETEFVAAITSGGGTTYYADSVKGRFTISRDTAKITVYLQMNSLKQEDTAVYYCAAPVYTVRGWRGLYGYWGQGSQVTVSS | high polyreactivity
QVQLVESGRGLVQAGGSLRISCAASGSIFRVNAMGWYRQAPGKERELVASISKTGTRTYYADSVKGRFTISRDNAKITVYLQMNSLKPEDTAVYYCAADKPRREYDYWGQGTQVTVSS | low polyreactivity
QVQLVESGRGLVQAGGSLRLSCAASARTFPIYAMGCYRQAPWKEREFVAAITYSGGSTYYADSVKGRFTISRDNAKNTVYLQMNSLKPEDTAVYYCAVDGTKPYWHQRYDYSGQGTQVTVSS | low polyreactivity
QVQLVESGRGLVQAGGSLRLSCAASGFIFDYNTMGWYRQAPGKERELVAGITSGGSTYYADSVKGRFTISRDNEKNTFYLQMNSLKPDDTAVYYCATDDDEYYGYDYWGQGTQVTVST | low polyreactivity
QVQLVESGRGLVQAGGSLRLSCAASGFIFHRYAMGWYRQAPGKERELFAAITRTGGRTYYADSVKGRFTISRDNAKNTVYLQMNSLKPEDTEVYYCAAVRTLSYEYWGQGTKVTVSS | high polyreactivity
QVQLVESGRGLVQAGGSLRLSCAASGFTFDGNAMGWYRQAPGIERELFARITWDDGSTYYADSVKGRFTISRDNAKNTVYLQMNSLNPEDTAVYYCAAEWCTDGYQVLPVDYDYWGQGTQVTVSS | low polyreactivity
QVQLVESGRGLVQAGGSLRLSCAASGFTFRTYAMGWYRQSPGKERELDAAITRNGGTYYADSVKGRFTISRDNAKITVYLPMNSLKPEDTARYYCATDPAYWGDLPPEDDYWGQGTQVTVSS | low polyreactivity
QVQLVESGRGLVQAGGSLRLSCAASGGTFYIYAMGWYRQAPGKERELVAVISISDASTYYADSVKGRFTFSRDNAKNTVYLQMNSLKPEDTAVYYCNAKSNPAGSYPSEHSGYDSWGQGTQVTVSS | low polyreactivity
QVQLVESGRGLVQAGGSLRLSCAASGIIFSSYAMGWYRQAPGKERELVAAISYSGGSTYYADSVKGLFSISRDNAKNTVYLEMNCLIPEDTAVYYCAAQGYSPGGYDYWGQGTQVTVSW | low polyreactivity
QVQLVESGRGLVQAGGSLRLSCAASGIIFVKYAMGWYRQAPGKERELVAAISTRGGSTYYADSVKGRFTISRDNAKNTVYLQMNSLNPEDTAVYYCADDATRKSQLPNTVPYDYWGQGTQVTVSS | high polyreactivity
QVQLVESGRGLVQAGGSLRLSCAASGIIFVSYMGWYRQAPGKERELVAAIRWSGGRTYYADSVKGRFTISRDNAKNTVYLQMNSLNPVDTAVYYCAADALRKPKIALYDYWGQGTQVTVSS | high polyreactivity
QVQLVESGRGLVQAGGSLRLSCAASGITFSYYTMGWYRQAPGKERELVAAINWNGGSTYYADSVKGRFTISRDNAKNTVYLQMNSLKPEDTAVYYCAREKWPSQYDYWGQGTQVTVSS | low polyreactivity
QVQLVESGRGLVQAGGSLRLSCAASGRIFHYNAMVWYRQAPRKERELVAAISGSGGSTYYADTVKGRFTISRDIAKNTVYLQMNSLKPEDTADYYCGDKRRTLGGYWGQGTQVTVSS | high polyreactivity
QVQLVESGRGLVQAGGSLRLSCAASGRIFRYYTMGWYRQAPGKERELVATISWNGSNTYYADSVKGRFTISRDNAKNTVYLQMNSLKPEDTAVYYCAAGVLPGLYNGARLFDYWGQGTQVTVSS | low polyreactivity
QVQLVESGRGLVQAGGSLRLSCAASGRIFTKNTMGWYRQAPGKERELVAAIRSRAGSTYYADSVKGRFTISRDNAKNTVYLQMNSLKPEDTAVYYCAVPWFRSVDFDYWGQGTQVTVSS | low polyreactivity
QVQLVESGRGLVQAGGSLRLSCAASGRIFYRYVMGWYRQAPGKERELVAAITSSGGSTYYADSVKGRFTISRDNAKNTVYFQMNSLKPEDTAVYYCSADRYTRYRYNYWGQGTQVTVSS | high polyreactivity
QVQLVESGRGLVQAGGSLRLSCAASGRIFYVYAMGWSRTAPGKERELVAAITQSGGRTYYADSVKGRFTISRDNAKNTVYLQMNSLKPEDTAVYYCAATWLGSRNLVHITLYYWGQGTQVTVSS | low polyreactivity
QVQLVESGRGLVQAGGSLRLSCAASGRIFYYAMGWYRQAPGKERELVAAITRSGGRTYYADSVKGRFTISRDNEKNTVYLQMNSLKPEDTAVYDCAADYGAQLWGYYPTFDYWGQGTQVTVSS | high polyreactivity
QVQLVESGRGLVQAGGSLRLSCAASGRIIGYYTMGWYRQAPGKERELVAAITRDGGSTYYADSVKGRFTISRDNAKNTVYLQMNSLKPEDTAVYYCTAASQSRYFYWGQGTQVTVSS | high polyreactivity
QVQLVESGRGLVQAGGSLRLSCAASGRTFGYYAMGWYIQAPGKERELVAAISYSGGSTYYADSVKGRFKISRDNAKNTVYLQMNSLKPEDTAVYYCAAYLRRYPWYDYWVQGTQVTVSS | high polyreactivity
QVQLVESGRGLVQAGGSLRLSCAASGRTFHYNVMGWYRQAPGKERELVAAITNTGGSTYYADSVKGRFTISRDNAKNTVYLQMNSLKPEDTAVYYCAAVIWGRRYGAYPYEYWGQGTQVTVSS | low polyreactivity
QVQLVESGRGLVQAGGSLRLSCAASGRTFRFNAMGWYRQAPGKEREFVAAITSGGGTYYADSVKGRFTISRDNAKNTVYLQMNSLKPEDTAVYYCAAPRQYYLMDYGGQGTQVTVSS | low polyreactivity
QVQLVESGRGLVQAGGSLRLSCAASGRTFYFYAMGWYRQAPGKEREFVAAITSSGVSTYYADSVKGRFTISRDNAKNTVYFQMISQKPEDSAVYYCAADDWDWENDYWGQGTQVTVSS | low polyreactivity
QVQLVESGRGLVQAGGSLRLSCAASGSIFGAYVMGWYRQAPGKERELVAAITRRGGSTYYADSVKGRFTISRDNAKNTVYLQMNSLKPEDTAVYYCAARRGAGDGYWGQGTQVNVSS | high polyreactivity
QVQLVESGRGLVQAGGSLRLSCAASGSIFGGYGMGWYRQAPGKERELVAAITSGSSTYYADSVKGRFTISRDNAKNTVYLQMNSLKPEDTAVYYCAARPYPHSAYEGDYWGRGTQVTVSS | low polyreactivity
QVQLVESGRGLVQAGGSLRLSCAASGSIFVDYTMGWYRQAPGKERELVARITSGGSTYYADSVKGRFTISRDNAKNSVYLQMNSLKPEDTAVYYCAARPYYRYRNSWREQYYYWGQGTQVTVSS | high polyreactivity
QVQLVESGRGLVQAGGSLRLSCAASGSIFWENAMGWYRQAPGKERELVADITIGGSTNYADSVKGRFTISRDNAKNTVYLQMNILKPEDTAVYYCAAYYYWPKYWYWGYDDWGQGTQVTVSS | low polyreactivity
QVQLVESGRGLVQAGGSLRLSCAASGSIFWYYAMGWYRPSPGKETELVAAIRRGGSTTYADSVKGRFTISRDNAKNTVYLQMNSLKPEDTAVYYCAAEPYYWYRGDYWGQGTQVTVSS | high polyreactivity
QVQLVESGRGLVQAGGSLRLSCAASGSTFAWNAMGWYRQAPGKERELVAAINSGDSTYYADSVKGLFTISRDNAKNTVYLQMNSLKPEDTAVYYCATKYRGVWYTRGQTYYYWGQGTQVNVSS | high polyreactivity
